For assay [1], the target named is T1, human G-protein-coupled receptor family C group 5 member D (GPRC5D) (human, UniProt Q9NZD1 1-345).
T1 construct: whole, on cells; also called human GPRC5D protein
The assay is described as follows: FACS, CHO-K1/GPRC5D. (In general: Flow cytometry measures light scatter and fluorescence of single cells or particles in a stream.)

Assay [2] addresses T1, human G-protein-coupled receptor family …. As to the kind of experiment: FACS, CHO-K1/human GPRC5D.
Assay [3] has the same target. As to the kind of experiment: FACS, NCI-H929 cells.
Assay [4] has the same target. The assay is described as follows: FACS, CHO-K1/human GPRC5D, chimeric antibody. How it is done:
CHO—K1 cells stably expressed human GPRC5D, were harvested from flasks. 100 µl of 1×10⁶ cells/ml of cells were incubated with primary chimeric antibodies in 3-fold serial dilutions starting from 300 nM to 0.001 nM for 30 minutes on ice. After being washed with 200 µl of FACS buffer twice, cells were incubated with secondary antibody for 30 minutes on ice. Cells were washed with 200 µl of FACS buffer twice and transferred to BD Falcon 5 ml tube and analyzed by FACS.

T1 sequence (Q9NZD1 whole entry): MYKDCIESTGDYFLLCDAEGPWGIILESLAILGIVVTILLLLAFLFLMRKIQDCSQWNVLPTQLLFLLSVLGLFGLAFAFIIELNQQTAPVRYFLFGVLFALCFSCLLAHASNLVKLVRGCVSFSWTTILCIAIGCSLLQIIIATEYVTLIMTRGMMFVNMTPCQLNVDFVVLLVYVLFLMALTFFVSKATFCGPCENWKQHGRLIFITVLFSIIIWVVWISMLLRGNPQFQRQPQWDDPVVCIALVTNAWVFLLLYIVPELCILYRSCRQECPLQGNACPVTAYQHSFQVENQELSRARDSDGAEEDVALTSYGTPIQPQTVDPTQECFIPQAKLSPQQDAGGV

B1: 6-H1L1 (antibody, V domains shown)
VH: QVQLVQSGAEVKKPGASVKVSCKASGYTFTTYTMHWVRQAPGQGLEWMGYINPSSGYTNYNQKFKDRVTMTRDTSTSTVYMELSSLRSEDTAVYYCSRLRSRGYFDYWGQGTLVTVSS
VL: DIQLTQSPSFLSASVGDRVTITCKASQNVGTAVVWYQQKPGKAPKLLIYSASNRYTGVPSRFSGSGSGTEFTLTISSLQPEDFATYYCQQYSSYPYTFGQGTKLEIK
notes: humanized 6G10D9, VH v1 x VL v1
In the case of B1, in assay [1], the Bottom was found to be 193, the LogEC50 was approximately 3.1, the Span was approximately 6200 and the Top is approximately 6400.

B2: 6-H4L3 (antibody, V domains shown)
VH: QVQLVQSGAEVAKPGASVKMSCKASGYTFTTYTMHWVKQAPGQGLEWLGYINPSSGYTNYNQKFKDRVTLTADTSTSTVYMELSSLRSEDTAVYYCASLRSRGYFDYWGQGTLLTVSS
VL: DIQMTQSPSFLSTSVGDRVTITCKASQNVGTAVVWYQQKPGKSPKLLIYSASNRYTGVPSRFSGSGSGTEFTLTISSMQPEDFATFFCQQYSSYPYTFGQGTKLEIK
notes: humanized 6G10D9, VH v4 x VL v3
For the molecule B2, in assay [2], the Bottom amounted to 109, the LogEC50 amounted to 1.42, the Span was determined as 146000 and the Top amounted to 146000. In addition, in assay [3], the Bottom was found to be 80, the LogEC50 came out at 1.61, the Span turned out to be 28900 and the Top was 29000. In assay [1], the Bottom is 2340, the LogEC50 was found to be 0.905, the Span is 124000 and the Top was 126000.

B3: 6-H4L2 (antibody, V domains shown)
VH: QVQLVQSGAEVAKPGASVKMSCKASGYTFTTYTMHWVKQAPGQGLEWLGYINPSSGYTNYNQKFKDRVTLTADTSTSTVYMELSSLRSEDTAVYYCASLRSRGYFDYWGQGTLLTVSS
VL: DIQLTQSPSFLSTSVGDRVTITCKASQNVGTAVVWYQQKPGKSPKLLIYSASNRYTGVPSRFSGSGSGTEFTLTISSLQPEDFATFYCQQYSSYPYTFGQGTKLEIK
notes: humanized 6G10D9, VH v4 x VL v2
In assay [1], B3 showed a Bottom of 9.56, a LogEC50 of 1.98, a Span of 39400 and a Top of 39400.

B4: 6-H4L1 (antibody, V domains shown)
VH: QVQLVQSGAEVAKPGASVKMSCKASGYTFTTYTMHWVKQAPGQGLEWLGYINPSSGYTNYNQKFKDRVTLTADTSTSTVYMELSSLRSEDTAVYYCASLRSRGYFDYWGQGTLLTVSS
VL: DIQLTQSPSFLSASVGDRVTITCKASQNVGTAVVWYQQKPGKAPKLLIYSASNRYTGVPSRFSGSGSGTEFTLTISSLQPEDFATYYCQQYSSYPYTFGQGTKLEIK
notes: humanized 6G10D9, VH v4 x VL v1
Consider B4, for which, in assay [1], the Bottom came to 61.5, the LogEC50 turned out to be 1.65, the Span turned out to be 50200 and the Top came to 50300.

B5: 6-H3L1 (antibody, V domains shown)
VH: QVQLVQSGAEVAKPGASVKVSCKASGYTFTTYTMHWVKQAPGQGLEWLGYINPSSGYTNYNQKFKDRVTMTADTSTSTVYMELSSLRSEDTAVYYCASLRSRGYFDYWGQGTLVTVSS
VL: DIQLTQSPSFLSASVGDRVTITCKASQNVGTAVVWYQQKPGKAPKLLIYSASNRYTGVPSRFSGSGSGTEFTLTISSLQPEDFATYYCQQYSSYPYTFGQGTKLEIK
notes: humanized 6G10D9, VH v3 x VL v1
For the molecule B5, in assay [1], the Bottom is -205, the LogEC50 is 2.35, the Span was found to be 74500 and the Top was 74300.

B6: 6-H3L2 (antibody, V domains shown)
VH: QVQLVQSGAEVAKPGASVKVSCKASGYTFTTYTMHWVKQAPGQGLEWLGYINPSSGYTNYNQKFKDRVTMTADTSTSTVYMELSSLRSEDTAVYYCASLRSRGYFDYWGQGTLVTVSS
VL: DIQLTQSPSFLSTSVGDRVTITCKASQNVGTAVVWYQQKPGKSPKLLIYSASNRYTGVPSRFSGSGSGTEFTLTISSLQPEDFATFYCQQYSSYPYTFGQGTKLEIK
notes: humanized 6G10D9, VH v3 x VL v2
As for B6, in assay [1], the Bottom amounted to 68.9, the LogEC50 was found to be 2.24, the Span was found to be 47400 and the Top was found to be 47500.

B7: 6-H3L3 (antibody, V domains shown)
VH: QVQLVQSGAEVAKPGASVKVSCKASGYTFTTYTMHWVKQAPGQGLEWLGYINPSSGYTNYNQKFKDRVTMTADTSTSTVYMELSSLRSEDTAVYYCASLRSRGYFDYWGQGTLVTVSS
VL: DIQMTQSPSFLSTSVGDRVTITCKASQNVGTAVVWYQQKPGKSPKLLIYSASNRYTGVPSRFSGSGSGTEFTLTISSMQPEDFATFFCQQYSSYPYTFGQGTKLEIK
notes: humanized 6G10D9, VH v3 x VL v3
Take B7: in assay [2], the Bottom amounted to 172, the LogEC50 came out at 1.41, the Span came out at 134000 and the Top worked out at 134000. In assay [3], this molecule showed a Bottom of 130, a LogEC50 of 1.47, a Span of 21700 and a Top of 21900. In addition, in assay [1], the Bottom came to 3990, the LogEC50 came to 0.955, the Span came out at 115000 and the Top was 119000.

B8: 6G10D9-XI (antibody, V domains shown)
VH: QVQLQQSGAELARPGASVKMSCKASGYTFTTYTMHWVKQRPGQGLEWLGYINPSSGYTNYNQKFKDKATLTAGKSSSTAYMQLSSLTSEDSAVYYCASLRSRGYFDYWGQGTTLTVSS
VL: DIVMTQSQTFMSTSVGDRVRITCKASQNVGTAVVWYQQKTGQSPRLLIYSASNRYTGVPDRFTGSGSGTDFTLTISNMQSEDLADFFCQQYSSYPYTFGGGTKLEIK
notes: also called 6G10D9 (chimeric); 6G1009-X1
For B8, in assay [2], the Bottom is 524, the LogEC50 was determined as 0.472, the Span was found to be 104000 and the Top was determined as 104000. In assay [4], this molecule had a Bottom of 6890, a LogEC50 of 0.101, a Span of 451000 and a Top of 458000. In addition, in assay [3], the Bottom was found to be 269, the LogEC50 amounted to 0.0515, the Span amounted to 13500 and the Top was 13800. In assay [1], this molecule returned a Bottom of 6860, a LogEC50 of 0.299, a Span of 115000 and a Top of 122000.

The record behind these values is patent US12281162 (LANOVA MEDICINES DEVELOPMENT, dated 2025).
